Values quoted from earlier work, collected in article PMC5245780.

Molecular target: Hax1 isoform 1 (Rattus norvegicus) (UniProt Q7TSE9)

Hax1 isoform 1 (from UniProt Q7TSE9)
Kd: 3.8 nM
